Article PMC9239242 (mBio, 2022)

B1: λ Orf73 (Orf73 from bacteriophage lambda) (natural protein)
chain: ADIIDSASEIEELQRNTAIKMRRLNHQAISATHCCECGDPIDERRRLVVQGCRTCASCQEDLELISKQRGSK
B2: VP882 Orf61 (Orf61 from Vibrio phage VP882) (natural protein)
chain: SDIADQAQDVIEQHLTASLANRKHNINPAIPSAKHCDDCESEIPEARRRSLPGVRLCVDCASLQEIKGRHQR
B3: VHML Orf8 (Orf8 from Vibrio phage VHML) (natural protein)
chain: MTDCSADPLDRAAALSQAHLEVSLSRIKKFEGVSAHECVECGSEIPKKRRELLQGVTDCVDCAAIKETLSKNYMR

Legend:
[1] = target: T1, E. coli RNA polymerase holoenzyme (native) (E. coli, UniProt P0A8V2 1-1342; P0A8T7 1-1407; P00579 1-613; P0A7Z4 1-329; P0A800 1-91); assay: cell-based or functional assay
[2] = target: T1, E. coli RNA polymerase holoenzyme …; details: both partners purified

Row | Binder | IC50 for inhibition of rrnB P1 transcription, multiround in vitro transcription with E. coli RNAP (4 nM to 2,000 nM factor) [1] [nM] | IC50 [2] [nM]
1 | B1 | ~50 | 
2 | B2 | 270 | 1700
3 | B3 | 800 | 3000
